Molecular target: IL-12 (mouse; target of the rat anti-mouse antibodies in the in vitro neutralization studies) (mouse) (UniProt P43432)
Test: cell-based or functional assay

Chain of IL-12 (mouse; target of the rat anti-mouse antibodies in the in vitro neutralization studies) (mouse) (P43432 23-335, chain 1 of 2): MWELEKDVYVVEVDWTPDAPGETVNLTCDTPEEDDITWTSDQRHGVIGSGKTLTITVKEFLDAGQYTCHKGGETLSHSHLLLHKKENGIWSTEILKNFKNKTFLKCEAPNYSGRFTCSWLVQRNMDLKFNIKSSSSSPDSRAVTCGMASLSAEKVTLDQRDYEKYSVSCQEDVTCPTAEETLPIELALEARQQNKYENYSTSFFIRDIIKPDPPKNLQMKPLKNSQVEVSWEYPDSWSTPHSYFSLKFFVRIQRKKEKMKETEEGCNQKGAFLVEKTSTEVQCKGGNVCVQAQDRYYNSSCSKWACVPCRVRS
Chain of IL-12 (mouse; target of the rat anti-mouse antibodies in the in vitro neutralization studies) (mouse) (P43431 23-215, chain 2 of 2, further chain): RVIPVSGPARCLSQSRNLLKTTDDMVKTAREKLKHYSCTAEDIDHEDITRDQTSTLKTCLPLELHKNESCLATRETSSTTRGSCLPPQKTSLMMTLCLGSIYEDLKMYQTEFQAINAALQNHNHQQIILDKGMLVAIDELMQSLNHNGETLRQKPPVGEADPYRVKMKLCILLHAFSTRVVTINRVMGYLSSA

**Q.** “C17.8 (rat anti-mouse IL-12/IL-23p40, IgG2a) (antibody)” was tested. Which in vitro neutralization of IL-12 (fold (against anti-p35 mAb C18.2)) did it give?
**A.** The in vitro neutralization of IL-12 (fold (against anti-p35 mAb C18.2)) was 5.

— patent US20120207670A1
